Measurements published in patent US5427937.

Target: purified human coagulation factor Xa (human) (UniProt P00742)

Substance “crude soluble hookworm protein extract (Ancylostoma caninum adult worms) (pool or library)” has a factor Xa activity (chromogenic assay, hydrolysis of Chromozym X) of 50 % reduction.
